# Data taken from US20190330357A1 (Bayer, published 2019).
# Positions count from the first letter of the chain named.
# B1: TPP-8988 (antibody, human IgG1, kappa, V domains shown)
# VH: EVQLLESGGGLVQPGGSLRLSCAVSDYSITSGYYWNWIRQAPGKKLEWMGYISYDGSNNYNPSLKNGRITISRDTSKNTFYLQMNSLRAEDTAVYYCARGEGFYFDSWGQGTLVTVSS
# VL: EIVLTQSPGTLSLSPGERATLSCKSSQSLFFGSTQKNYLAWYQQKPGQAPRLLIYWASTRESGIPDRFSGSGSGTDFTLTISRLEPEDFAVYYCQQYYNYPWTFGQGTKLEIKR
# notes: Humanized variant of 12F1 (IGKV3-20 / IGHV3-66 frameworks), human IgG1 kappa
# B2: TPP-9129 (antibody, human IgG1, kappa, V domains shown)
# VH: B1 VH
# VL: EIVLTQSPGTLSLSPGERATLSCRASQSVSSSYLAWYQQKPGQAPRLLIYWASTRESGIPDRFSGSGSGTDFTLTISRLEPEDFAVYYCQQYYNYPWTFGQGTKLEIKR
# B3: TPP-9130 (antibody, human IgG1, kappa, V domains shown)
# VH: B1 VH
# VL: B1 VL with W56G, T59S, E61A, S62T
# B4: TPP-9075 (antibody, human IgG1, kappa, V domains shown)
# VH: B1 VH with W35S
# VL: B1 VL
# B5: TPP-9078 (antibody, human IgG1, kappa, V domains shown)
# VH: B1 VH with M49V
# VL: B1 VL
# B6: TPP-9104 (antibody, human IgG1, kappa, V domains shown)
# VH: B1 VH with G32N
# VL: B1 VL
# B7: TPP-6013 (antibody, human IgG1, kappa, V domains shown)
# VH: QVQLQESGPGLVKPSQSLSLTCSVTDYSITSGYYWNWIRQFPGNKLEWMGYISYDGSNNYNPSLKNRISITRDTSKNQFFLKLSSVTTEDTATYYCSRGEGFYFDSWGQGTTLTVSS
# VL: DIMMSQSPSSLAVSVGEKFTMTCKSSQSLFFGSTQKNYLAWYQQKPGQSPKLLIYWASTRESGVPDRFTGSGSGTDFTLAISSVMPEDLAVYYCQQYYNYPWTFGGGTKLEIKR
# notes: Chimeric antibody: murine 12F1 variable domains with human IgG1 kappa constant regions; also called antiCD123-12F1-hIgG1Kappa; chimeric variant of 12F1
# B8: TPP-8617 (antibody, human IgG1, kappa, V domains shown)
# VH: EVQLVQSGAEVKKPGESLKISCKGSDYSITSGYYWNWVRQMPGKGLEWMGYISYDGSNNYNPSLKNGQVTISADKSISTAYLQWSSLKASDTAMYYCSRGEGFYFDSWGQGTLVTVSS
# VL: B7 VL
# notes: Humanized 12F1 graft on IGKV4-1 / IGHV5-51; also called Hum-TPP6013-17
# B9: TPP-5969 (antibody, human IgG1, kappa, V domains shown)
# VH: QVQLVQSGAEVKKPGSSVKVSCKASGGTFSDYYMKWVRQAPGQGLEWMGDIIPSNGATFYAQKFQGRVTITADESTSTAYMELSSLRSEDTAVYYCARSHLLRASWFAYWGQGTLVTVSS
# VL: DIVMTQSPDSLAVSLGERATINCESSQSLLNSGNQKNYLTWYQQKPGQPPKLLIYWASTRESGVPDRFSGSGSGTDFTLTISSLQAEDVAVYYCQNDYSYPYTFGQGTKLEIKR
# notes: Humanized version of murine 7G3, human IgG1 kappa; also called HU7G3-4-hIgG1Kappa
# B10: TPP-8695 (antibody, human IgG1, kappa, V domains shown)
# VH: B9 VH with A61N, Q65K, R67Q
# VL: B9 VL
# notes: also called Variant4-hIgG1kappa
# B11: TPP-9476 (antibody, human IgG1, kappa, V domains shown)
# VH: B9 VH with A61N, Q65K
# VL: B9 VL with L29V
# notes: Humanized and germlined variant of 7G3, human IgG1 kappa
# B12: TPP-8987 (antibody, human IgG1, kappa, V domains shown)
# VH: B9 VH with A61N, Q65K, R67Q
# VL: B9 VL with L29V
# notes: as for B11
# Tests used:
# [1] = molecular target: T1, TPP-5521, recombinant IL3Ra aa20-305 (extracellular domain of IL3Ra, R&D Systems) (murine (printed under Origin in Table …, UniProt P26951 20-305)); assay: SPR (Biacore T200), antibody captured by anti-human Fc, IL3Ra ECD as analyte, 1:1 Langmuir fit, 25 °C
# T1 construct: Bought antigen; also called soluble IL3Ralpha; IL3Ra protein
# T1 sequence: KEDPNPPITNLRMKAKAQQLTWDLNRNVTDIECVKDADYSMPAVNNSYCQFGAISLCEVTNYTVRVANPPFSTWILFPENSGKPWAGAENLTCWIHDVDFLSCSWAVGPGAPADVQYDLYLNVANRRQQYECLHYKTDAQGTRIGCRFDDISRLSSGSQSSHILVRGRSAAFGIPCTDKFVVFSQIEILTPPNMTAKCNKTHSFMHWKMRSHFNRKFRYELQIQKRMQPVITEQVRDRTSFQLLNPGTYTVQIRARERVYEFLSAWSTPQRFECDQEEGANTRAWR
# Protocol: Surface plasmon resonance experiments for quantitative binding analysis were carried out using a Biacore T200 instrument (GE Healthcare Biacore, Inc.). Here the antibodies to be examined were fixed with the aid of an anti-human Fc antibody (“Human Antibody Capture Kit”, BR-1008-39, GE Healthcare Biacore, Inc.) amine-coupled to the sensor chip surface Amine coupling was performed according to the manufacturer's instructions using 1-ethyl-3-(3-dimethylaminopropyl)carbodiimide hydrochloride (EDC), N-hydroxysuccinimide (NHS) and ethanolamine HCl pH 8.5 (“Amine Coupling Kit” BR-1000-50, GE Healthcare Biacore, Inc.). For the analyses, Series S sensor chips CMS (GE Healthcare Biacore, Inc.) were used with the mobile buffer HBS-EP+ (10 mM HEPES pH 7.4, 150 mM NaCl, 3 mM EDTA, 0.05% Surfactant P20). All experimental steps were carried out at 25° C. After fixation of the anti-CD123 antibodies to be examined, injections of the extracellular domain of IL3Ra (analyte, R&D Systems) at concentrations of 100 nM were carried out, and after each antigen injection the sensor surface was regenerated with glycine HCl pH 2.0. Prior to another analyte injection, antibodies were in each case fixed as above, under identical conditions. For all measurements, an upstream flow cell only containing immobilized amine-coupled anti-human Fc antibody was used as reference cell. Evaluation of the sensorgrams obtained was, after double referencing (subtraction of the reference flow cell signal and a buffer injection), carried out by a global fit based on a 1:1 Langmuir binding model with the aid of the Biacore T200 evaluation software (GE Healthcare Biacore, Inc.).
# [2] = molecular target: T2, IL-3Rα, CD123 (interleukin 3 receptor subunit alpha) as expressed on CD123-positive human cancer cell lines … (human, UniProt P26951 20-378); assay: flow cytometry on MOLM-13 cells, anti-kappa-FITC secondary antibody
# T2 construct: Target of the flow cytometry on the human cell line MOLM-13 (CD123-positive); NCBI Gene ID 3563; also called IL3RA; IL3R-alpha
# T2 sequence: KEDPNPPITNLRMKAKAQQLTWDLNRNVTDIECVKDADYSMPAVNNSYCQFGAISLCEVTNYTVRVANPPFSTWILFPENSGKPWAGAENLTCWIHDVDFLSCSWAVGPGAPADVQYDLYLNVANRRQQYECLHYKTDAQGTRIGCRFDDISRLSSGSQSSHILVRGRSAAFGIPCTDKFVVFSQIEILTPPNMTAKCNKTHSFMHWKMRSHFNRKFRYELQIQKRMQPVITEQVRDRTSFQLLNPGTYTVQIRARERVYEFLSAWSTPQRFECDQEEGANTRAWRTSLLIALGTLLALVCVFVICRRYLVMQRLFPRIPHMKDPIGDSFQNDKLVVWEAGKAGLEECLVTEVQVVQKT
# Protocol: (§1) Binding of the anti-CD123 antibodies was examined by flow cytometry using human haematological cell line MOLM-13. To this end, the cells (5×10⁵ cells/well) were incubated in FACS buffer (PBS without Ca/Mg, 3% FCS, Biochrom) with 10 μg/ml primary antibody solution (start concentration) on ice for 30-45 min protected from light. A dose activity curve (1:5 dilution) was plotted. After the incubation, 200 μl of ice-cold FACS buffer were added using a pipette, and the cell suspension was centrifuged at 4° C. 400 g for 4 min. The cell pellet was washed with 300 μl of ice-cold FACS buffer and the pellet obtained was then resuspended in 100 μl FACS buffer and incubated again with secondary antibody (monoclonal anti-kappa light chains-FITC antibody, Sigma, No. SAB4700605) in a 1:10 dilution on ice for 30 min. The cells were then washed with ice-cold FACS buffer and adjusted to a cell concentration of 0.5×10⁶ cell/m1 prior to flow cytometry using a Guava flow cytometer (Millipore). Propidium iodide (final concentration 1 μg/ml) was used for live staining. The results were shown as EC₅₀ values determined based on the dose response curve and efficacy compared to maximal binding.
# [3] = molecular target: T2, IL-3Rα, CD123 (interleukin 3 receptor …); assay: flow cytometry on MOLM-13 cells
# Protocol: as §1
Binder,Kd [1] [nM],EC50 [2] [nM],Efficacy [%] (compared to maximal binding) [2],binding result [3]
B1,0.33,1.9,100,
B2,,,,no binding (tested: 10 µg/ml (start concentration))
B3,,3.01,100,
B4,,5.37,100,
B5,,,,no binding (tested: 10 µg/ml (start concentration))
B6,,25.3,83,
B7,0.8,2,100,
B8,,1.4,100,
B9,,5.3,34,
B10,,1.12,36,
B11,7.2,2.8,100,
B12,1.24,3.2,100,
